Measured values as given in US20240018256A1 (JUNO THERAPEUTICS, published 2024).

Experiments:
human CD19 [1] = target: T1, human CD19 (human, UniProt P15391 20-556); test: flow cytometry competition for binding with FMC63 (n = 3)
T1 sequence: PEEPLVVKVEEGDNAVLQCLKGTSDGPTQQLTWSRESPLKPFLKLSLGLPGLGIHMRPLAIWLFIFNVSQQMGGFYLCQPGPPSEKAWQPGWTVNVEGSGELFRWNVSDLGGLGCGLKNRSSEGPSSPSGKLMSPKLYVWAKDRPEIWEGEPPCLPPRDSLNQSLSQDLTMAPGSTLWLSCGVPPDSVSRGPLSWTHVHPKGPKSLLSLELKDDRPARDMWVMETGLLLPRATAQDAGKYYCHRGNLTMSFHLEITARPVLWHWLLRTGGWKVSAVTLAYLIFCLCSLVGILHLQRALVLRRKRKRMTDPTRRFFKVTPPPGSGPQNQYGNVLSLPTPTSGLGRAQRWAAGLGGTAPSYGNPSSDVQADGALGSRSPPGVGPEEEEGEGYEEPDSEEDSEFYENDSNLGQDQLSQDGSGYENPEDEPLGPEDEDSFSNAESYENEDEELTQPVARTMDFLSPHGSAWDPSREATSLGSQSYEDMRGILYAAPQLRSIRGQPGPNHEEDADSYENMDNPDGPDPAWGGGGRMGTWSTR

human CD19 [2] = target: T1, human CD19; test: flow cytometry on CD19-expressing cells (n = 2)

B1: Clone 241 scFv (scFv)
scFv: EVQLVQSGGGLVQPGRSLRLSCAASGFTFDDYAMHWVRQAPGKGLEWVSGISWNSGSIGYADSVKGRFTISRDNAKNSLYLQMNSLRAEDTAVYYCARDQGYHYYDSAEHAFDIWGQGTVVTVSSGGGGSGGGGSGGGGSAIRMTQSPSSLSASVGDRVTVTCQASQDISNYLNWYQQKPGRAPKLLIYDASNVKAGVPSRFSGGGSGTDFTLTISSLQPEDFATYYCQQSYSTPQAYTFGQGTKLDIK
notes: Human scFv
- IC50 (human CD19 [1]): 14.6 nM
- EC50 (human CD19 [2]): 5.2 nM
